Experimental findings from ChEMBL document CHEMBL4706636, “Determining Essential Requirements for Fluorophore Selection in Various Fluorescence Applications Taking Advantage of Diverse Structure-Fluorescence Information of Chromone Derivatives” (J Med Chem, 2021) are described below.

Data set [1] relates to CCCc1coc2cc(NC(=O)C(N)CCCCN)c(OC)cc2c1=O. Nature of the data set: (§1) Substrate activity at trypsin (unknown origin) by fluorescent biochemical assay. Type of data set: protein assay. The note with it: Homo sapiens.
In data set [2] the test system is CCCc1coc2cc(NC(=O)C(N)CCCCN)ccc2c1=O. The description is as §1. The format is protein assay. To be noted: Homo sapiens.

As for “Trypsin (Homo sapiens) (from UniProt P07477+P07478+P35030)”, the Km was 30.3 µM in data set [1] and 47.6 µM in data set [2].

The Km is the concentration of substrate that gives half-maximal velocity.
